Measurements: publication PMC4597910
Like-named read-outs stand apart in the source and are kept apart here.

Experiments:
[1] = target: T1, GB1-SRSF1 RRM1+2 (UniProt Q07955 16-195); assay: NMR titration
[2] = target: T1, GB1-SRSF1 RRM1+2; assay: NMR titration; remark: listed apart in the source

T1 sequence (Q07955 16-195): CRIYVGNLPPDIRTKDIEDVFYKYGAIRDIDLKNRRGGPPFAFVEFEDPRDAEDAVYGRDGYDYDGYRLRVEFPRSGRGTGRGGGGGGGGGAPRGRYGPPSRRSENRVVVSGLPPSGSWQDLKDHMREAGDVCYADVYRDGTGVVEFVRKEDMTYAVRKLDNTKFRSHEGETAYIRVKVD

Row | Binder | binding result [1] | binding result [2]
1 | UCAGAGGA (ssRNA) [WT UCAGAGGA] | binds | 
2 | UCACUGGA (ssRNA) [UCACUGGA mutant] |  | binds
